According to the nanobody polyreactivity screen of Harvey et al. (2022):

Test: yeast display, Sf9 membrane polyspecificity reagent, FACS + sequencing; frameworks hold sequencing errors
Method in brief: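 A synthetic nanobody library was expressed on Saccharomyces cerevisiae BJ5465 by galactose induction for 36–48 hours. The library was stained for 1 hour at 4 °C with 10% biotinylated, detergent-solubilized Sf9 membrane reagent and enriched with streptavidin microbeads before FACS. Low and high (top ~1%) gates were set on anti-HA fluorescence for expression and streptavidin fluorescence for reagent binding, and each polyreactivity label reflects the gate of origin.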

QVLLVESGGGLVQAGGSLRLSGAASGSTFYNYAMGWNRQAPGKERELVASISDDGSTNYADSVKGRFTISRDNAKNTVYLQMNSLKQVDSAVYSCAAVWWLQFGSAWYQMGYWGQGTQVTVSS
polyreactivity (PSR sort gate): low polyreactivity

QVNLVDSGGRLVQAGGSLRLSCAASGRIFYRYAMGWYIQAPGKERELVAAISRRGGSTYYADSVKGRFTISRDNAKNTVYLQMNSLNPEDTAVYYCNVYRSAFSYDSWGQCTQVTVSS
polyreactivity (PSR sort gate): high polyreactivity

QVPLQESGGGLVQAGGSLRLSCAASGTISYAPHMGWYRQAPGKERELVAGITIGGTTYYADSVKGRFTISRDNAKNTVYLQMNSLSPGDTAVYYCAAHSEQYTPFYYWGQGTQVTVSS
polyreactivity (PSR sort gate): low polyreactivity

QVPLVESGGGLVQAGGILRLSSAASGFIFTYYAMGWYRQAPGKERELVAAISASGGSTYYADSVKGRFTISRDYAKNTVYIQLYSLEPEDSSVYYCNKLYQQRAWETFSWGGYWGQGTQVTVSS
polyreactivity (PSR sort gate): high polyreactivity

QVPLVESGGGLVQAGGRLRLSCAASGSTLLNSPMGWYRKAPGKERELVAAISSSGGRTYYPDSVKGRFTISRDNAKNTVYLQMNSLTPEDTEVYYCNKVLGYPKTFGYWGQGTQVSVSS
polyreactivity (PSR sort gate): high polyreactivity

QVPLVESGGGLVQAGGSLRLSCAASGFTFGWYAMGWYRQAPGKERELVAAISSNGGRTSYADSVKGRFTISRDNAKNTVYLQMNSLKPEDTAVYYCNADDRYIWTYWGWTIYDYWGQGTQVTVSS
polyreactivity (PSR sort gate): high polyreactivity

QVPLVESGGGLVQAGGSLRLSCAASGRIFIQNTMGWDSQAPGKERELVAAINRSAGSTYYADSVKGRFTISRDNAKNTVYLQMNSLKTEDTAVYYCAAYASRRYGYWGQVTQVTVSS
polyreactivity (PSR sort gate): high polyreactivity

QVPLVESGGGLVQAGGSLRLSCAASGRIFYNYAMGWYRQAPGKERELVAAISGSGGSTYYADSVKGRFTISRDNAKNTVYLQMNSLKPEDSSVYYCSTSGPQYYSRNFDYWGQGTQVTVSS
polyreactivity (PSR sort gate): low polyreactivity

QVPLVESGGGLVQAGGSLRLSCAASGRLFGYNTMGWYRQAPGKERELVARISYDVDSTYYADSVKGRFTISRDNAKNTVYLQMNSLKPEDTAVYYCNARRSNLGSYIEYFGFDYWGQGTQVTVSS
polyreactivity (PSR sort gate): low polyreactivity

QVPLVESGGGLVQAGGSLRLSCAASGRNYFKYAMGWYRQAPGKERELVATITWRGSSTYYSDSVKGRFTISRDNAKNTVFLQMNSLKPEDTAVYYCAARYLYTDEYWDKFYYWGQGTQVTVSS
polyreactivity (PSR sort gate): high polyreactivity

QVPLVESGGGLVQAGGSLRLSCAASGRTFPSNMGWYRQAPGKERELVAAISWRGGSTNYADSVKGRFTISRDNAKNTVYLQMNSLKPEDTAVYYCNARYNTQRYRFLVQGDYWGQGTQVTVSS
polyreactivity (PSR sort gate): high polyreactivity

QVPLVESGGGLVQAGGSLRLSCAASGSIFGQYAMGWYRQAPGKERELVAAIRDGTGSTYYAVSVKGRFTISRDNAKNTVYVQMNSLKPEDRAVYYCAADYIWTSIVHYEYWGQGTEVTVSS
polyreactivity (PSR sort gate): high polyreactivity

QVPLVESGGGLVQAGGSLRLSCAASGSIFLLYDMGWYRQAPGKERELVAAITWSGGSTYYADSVKGRFTISRDNAMNSVYLQMNSLKPEDTAVYYCAADEPYPTAYEYWGQGTQVTVSS
polyreactivity (PSR sort gate): low polyreactivity

QVPLVESGGRLVQAGGSLRLSCAASGSTIGPYTMGWYRQAPGKERELVATISSGGSTYSADSVKGRFTISRDNEKNTVYLQMISLKPEDTAVYYCAARYRSIYDYWGQGTQVTVSS
polyreactivity (PSR sort gate): low polyreactivity

QVPLVESGVGLVHAGGSLRISCATSGITFAYYFMGWYRQAPGKERELVAAISWTGSSTYYADSVKWRFTISRDNAKNTVYLQMNSLKQEDTAVYYCAARQRYLYDYWGQGTQVNVSS
polyreactivity (PSR sort gate): high polyreactivity

QVPLVESGVGLVQAGGSLRISCAASGFTFSRYAMGWYRQAPGKERELVAAISRTGGRTYYADSVKGRFTITRDNAKNTVYLQMNSLKPEDTADYYCARVPVHSHLRQTYAMEYWGQGTQVTVSS
polyreactivity (PSR sort gate): high polyreactivity

QVPLVESVGGLVQAGGSLRISCAASGSTLRGYAMGWYRKAPGKERELVAAISWRGGSTYYADSVKGRFTISRDNAKNTVYLQMNSLKPEDTAVYYCNALVAGHKYYTVTSKYDYWGQGTQLTVSS
polyreactivity (PSR sort gate): high polyreactivity

QVQDVESGGGLVQAGGSLRLSCAAYGFIFYSYAMGWYRQAPGKERELVAAISTGDGSTTFADSVKGRFTISRDNAKNSVYLQMNSLKPEDTAVYYCNVKYRACYRTDFEYWGQGTQVTVSS
polyreactivity (PSR sort gate): low polyreactivity

QVQFVESGGGLVQAGGSLRLSCAASGSIFYRYTMGSYRQAPGKERELVAAISSRGGSTYYADSVKGRFTISRDNAKNTVYLQMNSLKPEDTAVYYCAARYFRNPVFVIMDYWGQGTQVTVSS
polyreactivity (PSR sort gate): high polyreactivity

QVQFVESGGGLVQAGGSLRLSCAASGSTFPYYAMGWYRQAPGKERELVAGINWRGSSTYYADSVKGRFTISRDNAKNTVYLQMNSLKPEDTAVYYCAARDYSYPQWYYYWGQGTQVTVSS
polyreactivity (PSR sort gate): high polyreactivity

QVQFVESGGGLVQARCSLRLSCAASGFIFGVYAMGWYRQAPGKERELVAAINSGGGSTYYADSVKGRFTISRDNAKNTVYLQMNSLKPEDTAVYYCAVRYKSWYGFNYWGQGTQVTVSS
polyreactivity (PSR sort gate): high polyreactivity

QVQHAESGGGLVQAGGSLRLSCAASGSTSAKNVMGWYRQAPGKVRELVAAISRSGGRTYYADSVKGRFTISRDNAKNTVYLQMNSLNPEDTAVYYCAARSATNHADDYYYWGQGTQVTVSS
polyreactivity (PSR sort gate): high polyreactivity

QVQHEESGGGLVQAGGSLRLSCAASGFTFGTNAMGWSRQAPGKERELVAAISTRGGSTYYADSVKGRFTISRDNAKNTVYLQMNSLKPEDTAVYYCAAYWGRTRYYGYDYYYWGQGTQVTVSS
polyreactivity (PSR sort gate): high polyreactivity

QVQHVDSGGGLVQAGGSLRLSCAASGIYVVYAMGWYRQAPGKERELVAAISSGVSTTYADSVKGRFTISRDNAKNTVYLQMNSLKPEDTAVYYCNTLWGHHYIVPYRTREFYYWGQGTQVTVSS
polyreactivity (PSR sort gate): low polyreactivity

QVQHVDSGGGLVQAGGSLRLSCAASGSTFFTYAMGWYRQEPGKERELVAAISQSSVRTHYADSVKGRFTISRDNAKNTVYLQMNSLKPEDTAVYYCAARVYGRQYPGAPYYYWGQGTQVTVSS
polyreactivity (PSR sort gate): high polyreactivity

QVQHVDSGGGLVQAGGSLRLSFAASGFRFGINAMGWYRPAPGKERELVAAISKRTGSTYYADSVKGRFTSSRDNAKNTVYLQMNSLKPEDTAVYYCNKRVFPGYRLGGFWGQGTQVTVSS
polyreactivity (PSR sort gate): high polyreactivity

QVQHVEKGGALVQAGGSLRLSCAASGFTVDWYAMGWYIQAPGKERELVAAITTSGGTKYYADSVKGRFTISRDNAKNTVYLLMNCLNPEDTAVYYCAAEGTWSRNYDYWGQGTQVTVSS
polyreactivity (PSR sort gate): low polyreactivity

QVQHVESAGGLVQAGGSLRLICAASGSIFFHYGMGWYRQAPGKERELVADIRSGGSTYYADSVKGRFTSSRDNAKNTVYLQMNSLKPDDSAVYYCAAVLALFGVTHVDYWGQGTQVSVSS
polyreactivity (PSR sort gate): low polyreactivity

QVQHVESAGGLVQAGGSLRLSCSASGSIFYFYAMGWSRQAPGKERELVATITSSGSTNYADSVKGRFTISRDNAKNTVYLQMNSLKPEDTAVYYCNVDVISLKPYVSSYFAIKYDYWGQGTQVTVSS
polyreactivity (PSR sort gate): low polyreactivity

QVQHVESAGGLVQAGGSLSLSCAASGSIFNLYAMGWYRQAPGKERELVAAIRWDGGSTYNADSVKGRFTISRDTAKNTVYLQMNSLKPEDTAVYYCAAETVYFRLLILDYWGQGTQVTVSS
polyreactivity (PSR sort gate): high polyreactivity

QVQHVESGGALVQAGGSLRLSCAASARTFPGYTMGWYRQAPGKETELVAAITRVGTTYYADSVKGRFTISRDNAKNTVYLQMNSLKPEDTAVYYCAAVISQGFIRYYYWGQGTQVTVSS
polyreactivity (PSR sort gate): high polyreactivity

QVQHVESGGCLVQAGGSLRLSCASSGSIFDRNAMGWYRQAPGKERELVAAISSRGGSTYYADSVKGRFTISRDNAKNTVYLQMNSLKPEDTAVYYSAKRRDLYGGYRPYYYWGQGTQVTVSS
polyreactivity (PSR sort gate): high polyreactivity

QVQHVESGGGIDQAGGSLRLSCAASGSTSVQYAMGWYRQATGKERELVAAISLSVGSTYYADSVKGRFTISRDNAKITVYLQMNCLKPEDTAVYYCASGYPPEDPEDYWGQGTQVTVSS
polyreactivity (PSR sort gate): low polyreactivity

QVQHVESGGGIVHAGGSLRLSCAASGSIFTRYTMGWDRMATGKERELVAVISDSSGRTYYADSVKGRFTISRDNAKNTFYLQLNSLKPADTAVYYCAAEYSDIYEYWGQGTQVTVSS
polyreactivity (PSR sort gate): low polyreactivity

QVQHVESGGGIVQAGGSLRLSCAASGIIFTSNAMGWYRQAPGKERELVAAINWSGARTYYADSVKGRFTISRDNAKNTVYLQMNSLKPEDTAVYYCNVVTRAATYPDYSYDYWGQGTQVTVSS
polyreactivity (PSR sort gate): high polyreactivity

QVQHVESGGGIVQAGGSLRLSCAASGRTYAINAMGSYRQAPGKEMELLASITTRDSSTYYADSVKGRFTISRDNAKNTVYLQMKSLIPDDTAVYYCAKVKLVTYLYRLFVYGSYYWGLGTQVTVSS
polyreactivity (PSR sort gate): low polyreactivity

QVQHVESGGGLLQAGGSLRLSCAASGITFWPYAMGWYRQAPGKERELVAAIRASVGRTYYADSVKGRFTISREYAKNTVYLQMNSLIPVDTAVYYCNAYGRYGKFRVEYDYWGQGTQVTVSS
polyreactivity (PSR sort gate): low polyreactivity

QVQHVESGGGLVHAGGRLRLRCAASGSTFVTNVMGWYSQEPGKEMELVAAISYSGGNTYYEDSEKGRFTISRDNAQNSVYLQMNSLKQEDTAVYYCAAAYKPFKKMGYWGQGTQVTVSS
polyreactivity (PSR sort gate): high polyreactivity

QVQHVESGGGLVQAAGSLRLSCAASGRIFYRNAMGWSRQAPGKERELVAAISKSGGSTYYSDSVKGRFTISRDNAKNTVYLQMNSLKPEDTAVYYCAAGTRLSDGYYWGQGTQVTVSS
polyreactivity (PSR sort gate): high polyreactivity

QVQHVESGGGLVQAAGSLRLSCAASGTTLSSYAMGWSRQAPGKVRELVAAINSSGGRTYYADSVKGRFTISRDNAKNTVYLQMNSLKPDDTAVYYCAATRGRYREYEDYWGQGTQVTVSS
polyreactivity (PSR sort gate): high polyreactivity

QVQHVESGGGLVQAGGGLRLSCAASGRIFRQNTMGWYRHAAGKEWELVASISLSAGSTFYADSVKGRFTISRDNAKNTVYLQMNSLKPEDTAVYYCAAEKPVHYVRGVHYDYWGQGTQVTVSS
polyreactivity (PSR sort gate): low polyreactivity

QVQHVESGGGLVQAGGILRFSSPASGGTVNINAMGWYIQAPGKERELFADISYSDGTTDYADSVKGRFTISRDNAKNTVYLQMNSLKPEDTAVYYCAAYYYYYSGFGQRSYSWGQGTNVTVSS
polyreactivity (PSR sort gate): low polyreactivity

QVQHVESGGGLVQAGGILRLICDASGGIFAANAMGWYRPAPGQERELVAAITSVGSTYADSVKGRFTISRDNAKNTVYLQMNSLKPEDTAVYYCAADTESVIVWYEDDYWGQGTQVTVSS
polyreactivity (PSR sort gate): low polyreactivity
